In a protein production outcome set (Wang et al. 2014):

Assay: label from the status in PepcDB records
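Note: failed if final PepcDB status was selected cloned or expressed and not failed if soluble or beyond.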

Row | Sequence | protein production
1 | MSLAILTTAYAKIIGLDFSYRKVSTLPIFTKKEDVILSSSHVQTIIYDPSFIADQNTFYLANPAVVIDYFPSKSHRSGIKFSLETFLAMYYKNIAADALADKDLNKSFLYANKAYQLDTDNIETINLLAVIHRRSGDLQTAEAIYKTGMDKGQTNIALLSNYIMLLKSQRRMDEVNTLQDKLNQLDDPDPYQWLGEAYTAKNVGNIKQAEIYFKKALSKAPYLNQAYMGLYKIYIKQNKLKKAQTMLVKALEWTYELDERKLYKYKLYNIEHNIAAIN | failed
2 | MSLAQIKSLFATRLYHAPLSEHGPALDPAEFAASCYSIAEDDDAGQEWCEREGYPGYTSYASLTDLPWRFPIFADLVKSLDAHVAAFAEDLEFELDGKALRLEDIWINILPEGGVHGSHIHPHSVISGTTYVAMPEGTSALKLEDPRLPFMMAAPTRRKGAREELRTFRSVAPKVGDVLLWESWLRHEVPMNMAEEDRISVSFNYAWGEGHHHHHH | not failed
3 | MSLARVLLNIHGTGDTVVLALCDEDLLGVELKYKGRTLHISEPFYSGKSMEPDRAAKKIREAVQEYEDEKTVAINALGELACSVVVDAGLAREDEIGELGGVPHVQMYILPREPFLEGHHHHHH | not failed
4 | MSLASFPVQILPNLYLGSARDSANLESLAKLGIRYILNVTPNLPNFFEKNGDFHYKQIPISDHWSQNLSRFFPEAIEFIDEALSQNCGVLVHSLAGVSRSVTVTVAYLMQKLHLSLNDAYDLVKRKKSNISPNFNFMGQLLDFERSLREGHHHHHH | not failed
5 | MSLATEGNGKVIHLTKAEFLAKVYNFEKNPEEWKYEGDKPAIVDFYADWCGPCKMVAPILDELAKEYDGQIVIYKVDTEKEQELAGAFGIRSIPSILFIPMEGKPEMAQGAMPKASFKKAIDEFLLKKEGHHHHHH | not failed
6 | MSLAVKPGEPLPDFLLLDPKGQPVTPATVSKPAVIVFWASWCTVCKAEFPGLHRVAEETGVPFYVISREPRDTREVVLEYMKTYPRFIPLLASDRDRPHEVAARFKVLGQPWTFVVDREGKVVALFAGRAGREALLDALLLAGADLEGHHHHHH | not failed
7 | MSLDGMPAKQQHNNTGESVELHFHYPIKGKQEPKNSHLVVLIEPKIEINKVIPESYQKEFEKSLFLQLSSFLERKGYSVSQFKDASEIPQDIKEKALLVLRMDGNVAILEDIVEESDALSEEKVIDMSSGYLNLNFVEPKSEDIIHSFGIDVSKIKAVIERVELRRTNSGGFVPKTFVHRIKETDHDQAIRKIMNQAYHKVMVHITKELSKKHMEHYEKVSSEMKKRKEGHHHHHH | not failed
8 | MSLDRLAPAIFVFLWSTGWVTAKYAVYYTGPLTFLCLRYLLAGLLLWAICRFSGISWPKQRADVLRAILSGVFLHGIYLGMIWWAIGQGVPAAIGGIIAGLQPLMTAVAARFMIGERISPLQRAGLLLGFAGIAIAVLPKVMATGALGMSVPLYAVAVNVLGMVSVTYGTLYQKKYVHGGNIMAVATLQYVGALLVTVPFALLLEDGHVDWSLGLAATLGWSVGAISIGAVALLLYLIRRGQVSRAASLIYLVPPLAAVEAAVLFGETLTPAMIAGTVLAVTGVYLANRKPAASVAVR | failed
9 | MSLDTGVTSVMFVERSLNEIRFWSRIMKEHSFFLRLGFRCEDTQLIEEANQFYRLFEHIEQIAHSYTNETDPEQIKRFNAEVQQAATNIWGFKRKILGLILTCKLPGQNNFPLLVDHTSREADYFRKRLIQLNEGKLDALPDAIIKENVFFLRIMADHAKFIGHLLDPSERKLVDTARNFSNDFDELMYQAIDLESMKPQSQTAPLLDQFLDQNRVSVASLRDFKKTARDLIEQCKIKSIIHPLLADHVFREADRFLEIIDMYDVHLTNIQSQPREGHHHHHH | not failed
10 | MSLDYDLLIKNGQTVNGMPVEIAIKEKKIAAVAATISGSAKETIHLEPGTYVSAGWIDDHVHCFEKMALYYDYPDEIGVKKGVTTVIDAGTTGAENIHEFYDLAQQAKTNVFGLVNISKWGIVAQDELADLSKVQASLVKKAIQELPDFVVGIKARMSRTVIGDNGITPLELAKQIQQENQEIPLMVHIGSAPPHLDEILALMEKGDVLTHCFNGKENGILDQATDKIKDFAWQAYNKGVVFDIGHGTDSFNFHVAETALREGMKAASISTDIYIRNRENGPVYDLATTMEKLRVVGYDWPEIIEKVTKAPAENFHLTQKGTLEIGKDADLTIFTIQAEEKTLTDSNGLTRVAKEQIRPIKTIIGGQIYDNEGHHHHHH | not failed
11 | MSLEEELRRETLKWLERIEERVKEIEGDEGFMRNIEAYISDSRYFLEKGDLVRAFECVVWAWAWLEIGLEVGKLHETAEGHHHHHH | not failed
12 | MSLEERVKEIIAEQLGVEKEKITPEAKFVEDLGADSLDVVELIMAFEEEFGIEIPDEDAEKIQTVGDVINYLKEKVGG | not failed
13 | MSLFEQLDELAAQGKPAALLTIVRKDGSAPRDVGDKMIVTADEEYGTIGGGTVEHLAVQDARSVLSGADDPGIRTYELERGGNTGMVCGGEMDVFIDHVRGQAQLYIAGGGHISVELAPLAERLGYAVTVVDDREAYADPTQFPDETDVIHGEYGEALGDLPMGTETAVAVATRSGTFDQAAVAAALDGEAGYVGLVASETKANHVLDSLAESGYARRDLSRVQTPVGLDLGGSGPAAVALSVLAEVTMDRHDATGARATRLNLDDLVVVRGGGDLGSGVVYRLQQAGFPVIVTEVDQPTVVRRAVAFGAALYEDEVEVEGVTGRAAADIDEALELLADDVVPVLVDPEATVADDLDAAVLVDAIMAKGAFDTGTRREDADVVVGMGPGFEAGEDVDAVVETDRGHELGRVFYDGLEHHHHHH | not failed
14 | MSLFLKDDSIQIREVWNDNLQEEMDLIRDVVDDFPYVAMDTEFPGIVVRPVGTFKSNADYHYETLKTNVNILKMIQLGLTFSNEQGNLPTCGTDKYCIWQFNFREFDLDSDIFALDSIELLKQSGIDLAKNTLDGIDSKRFAELLMSSGIVLNENVHWVTFHSGYDFGYLLKLLTCQNLPDSQTDFFKLINVYFPTVYDIKHLMKFCNSLHGGLNKLAELLEVERVGICHQAGSDSLLTSCTFRKLKENFFVGPLHKYSGVLYGLGVENGQVAI | failed
15 | MSLFRQGSQFMIIGALQLAVDCGIFIAATAAGMPAVPANLLGRIGGAMLGFWLNGRYTFAQQGDARLGWRRFRRFAAMWLTLTLISTWLLSTTVDLLGLRQAWLAKPLVEGGLAIVSFFLGRHVVYR | failed
16 | MSLHDFTLADVYRRNAALFPDRTAFMVDGVRLTHRDYLARAERLASGLLRDGVHTGDRVAILSQNCSEMIELIGAVALIGAILLPVNYRLNADEIAFVLGDGAPSVVVAGTDYRDIVAGVLPSLGGVKKAYAIGDGSGPFAPFKDLASDTPFSAPEFGAADGFVIIHTAAVGGRPRGALISQGNLLIAQSSLVDAWRLTEADVNLGMLPLFHVTGLGLMLTLQQAGGASVIAAKFDPAQAARDIEAHKVTVMAEFAPMLGNILDQAAPAQLASLRAVTGLDTPETIERFEATCPNATFWATFGQSETSGLSTFAPYRDRPKSAGRPLFWRTVAVVDAEDRPLPPGEVGEIVLRGPTVFKGYWNNAAATQHAFRNGWHHTGDMGRFDADGYLFYAGRAPEKELIKTGGENVYPAEVEGALKQHPAIADAVVIGVPDPQWSEAIKAVCVCKPGESIAADALAEFVASLIARYKKPKHVVFVEALPKDAKGAIDRAAVKTAHGQEGHHHHHH | not failed
17 | MSLHVTADAPGAAQGGYSVVTFRVPTESETAATTAMTVTLPNVRSARTEPMPGWTARVDRNDKSEAVSVTWTADPGNPGVQPGQFQRFVVSIGPLPSAETVSFPAEQTYSDGRVVAWNQPPAADGSEPEHPAPTLTLATAPGDTEGHHHHHH | not failed
18 | MSLIASIGELLIDLISVEEGDLKDVRLFEKHPGGAPANVAVGVSRLGVKSSLISKVGNDPFGEYLIEELSKENVDTRGIVKDEKKHTGIVFVQLKGASPSFLLYDDVAYFNMTLNDINWDIVEEAKIVNFGSVILARNPSRETVMKVIKKIKGSSLIAFDVNLRLDLWRGQEEEMIKVLEESIKLADIVKASEEEVLYLENQGVEVKGSMLTAITLGPKGFRLIKNETVVDVPSYNVNPLDTTGAGDAFMAALLVGILKLKGLDLLKLGKFANLVAALSTQKRGAWSTPRKDELLKYKEAREVLAEGHHHHHH | not failed
19 | MSLINEATLAESIRRLRQGERATLAQAMTLVESRHPRHQALSTQLLDAIMPYCGNTLRLGVTGTPGAGKSTFLEAFGMLLIREGLKVAVIAVDPSSPVTGGSILGDKTRMNDLARAEAAFIRPVPSSGHLGGASQRARELMLLCEAAGYDVVIVETVGVGQSETEVARMVDCFISLQIAGGGDDLQGIKKGLMEVADLIVINKDDGDNHTNVAIARHMYESALHILRRKYDEWQPRVLTCSALEKRGIDEIWHAIIDFKTALTASGRLQQVRQQQSVEWLRKQTEEEVLNHLFANEDFDRYYRQTLLAVKNNTLSPRTGLRQLSEFIQTQYFDEGHHHHHH | not failed
20 | MSLIYTITLNPAIDRLLFIRGELEKRKTNRVIKTEFDCGGKGLHVSGVLSKFGIKNEALGIAGSDNLDKLYAILKEKHINHDFLVEAGTSTRECFVVLSDDTNGSTMIPEAGFTVSQTNKDNLLKQIAKKVKKEDMVVIAGSPPPHYTLSDFKELLRTVKATGAFLGCDNSGEYLNLAVEMGVDFIKPNEDEVIAILDEKTNSLEENIRTLAEKIPYLVVSLGAKGSICAHNGKLYQVIPPKVQERNDTGAGDVFVGAFIAGLAMNMPITETLKVATGCSASKVMQQDSSSFDLEAAGKLKNQVSIIQLEEREGHHHHHH | not failed
21 | MSLKDFAGRTAFVTGGANGVGIGLVRQLLNQGCKVAIADIRQDSIDKALATLEAEGSGPEVMGVQLDVASREGFKMAADEVEARFGPVSILCNNAGVNLFQPIEESSYDDWDWLLGVNLHGVVNGVTTFVPRMVERVKAGEQKGGHVVNTASMAAFLAAGSPGIYNTTKFAVRGLSESLHYSLLKYEIGVSVLCPGLVKSYIYASDDIRPDALKGEVKPVDKTAVERLAGVHEFGMEPDVIGARVIEAMKANRLHIFSHPDHKEELREVFDEIIAEYQDYPKDPGYDQRVAFEKFRADSFAEARRQSRAADEGHHHHHH | not failed
22 | MSLKIAAFGEVMLRFTPPEYLMLEQTEQLRMNFVGTGVNLLANLAHFQLETALITKLPANRLGEAGKAALRKLGISDQWVGEKGDHIGSFFAEMGYGIRPTQVTYQNRHQSAFGISEAKDYDFEAFLAEVDMVHICGISLSLTEKTRDAALILAQKAHAYQKKVCFDFNYRPSLNTANSALFMRQQYERILPYCDIVFGSRRDLVELLGFIPREDLEGEAQETELIQRFMSQYNLEWFAGTTRSHSQNQNYLSGYLYTQNEYQQSEKRPLLNLDRIGAGDAYAAGILYGYSQNWSLEKAVTFATVNGVLAHTIQGDIPLTTVKQVNHVLEHPNIDLIREGHHHHHH | not failed
23 | MSLKIAKVEALSVAMGDGTGWMPTSAFVRITAEDGTVGWGEASPMLGGIASLGVVARDIAPFLEGQEVLDHAVLLDRMMHRLVKLGPEGIATAALAACDIALWDLKGKLLGQPIYKLLGGAWRTRLPCYSSIGGNAARSVDEVVREVARRVEAEQPAAVKIRWDGDRTRCDVDIPGDIAKARAVRELLGPDAVIGFDANNGYSVGGAIRVGRALEDLGYSWFEEPVQHYHVGAMGEVAQRLDITVSAGEQTYTLQALKDLILSGVRMVQPDIVKMGGITGMMQCAALAHAHGVEFVPHQTQPGVGHFANIHVLSTLMHMTKPVELADRWDRGRPVFRNPAEPVDGHFALGDAPGLGIVVDEDELASRATEITVGRDQRPPAGGQYEGHHHHHH | not failed
24 | MSLKIKVYLYTRVSTSIQIEGYSLEAQKSRMKAFAIYNDYEIVGEYEDAGKSGKSIEGRIQFNRMMEDIKSGKDGVSFVLVFKLSRFARNAADVLSTLQIMQDYGVNLICVEDGIDSSKDAGKLMISVLSAVAEIERENIRIQTMEGCIQKAREGKWNGEGHHHHHH | not failed
